According to PMC7762955, “Antibiotic binding releases autoinhibition of the TipA multidrug-resistance transcriptional regulator” (The Journal of Biological Chemistry, 2020):
Numbering of substitutions follows the chain as printed. Numbers in names are those of the source.

Legend:
[1] = molecular target: SkgA (stationary-phase regulation of KatG protein), Caulobacter crescentus TipA-class transcriptional regulator, full length (Caulobacter crescentus); test: not stated; SkgA in solution (Fig. S2A); method not given
[2] = molecular target: SkgACC (S16C/E133C), double-cysteine mutant of SkgA (Caulobacter crescentus); test: cross-linking; disulfide bonds between introduced cysteines; reduced and nonreduced 15% SDS-PAGE, Coomassie Brilliant Blue staining
[3] = molecular target: the molecule itself; test: SEC; analytical SEC, Superdex 200 10/300, 40 μM protein, 20 mM Tris-HCl pH 7.5, 150 mM NaCl, 1 mM DTT
[4] = molecular target: the molecule itself; test: cross-linking; disulfide bonds between introduced cysteines; reduced and nonreduced 15% SDS-PAGE, Coomassie Brilliant Blue staining
[5] = molecular target: tipA promoter DNA (ptipA); test: Fluorescence polarization assay, tipA promoter DNA binding; set-up: species or system Streptomyces lividans; settings: apo, FPA; for Kd: read-out: Kd, affinity with the tipA promoter DNA (ptipA)
Protocol: (§1) Fluorescence polarization assays (FPAs) were performed to test the structure-based hypothesis that α6–α7 plays a key role in communication between the ligand-binding and DNA-binding regions. […] Parallel experiments were also performed for Mta and SkgA proteins, and consistent results were obtained.
(§2) FPAs were performed in buffer consisting of 20 mM Tris-HCl, pH 7.5, 200 mM NaCl and 5% (v/v) glycerol at 298 K using a SpectraMax M5 microplate reader system (Molecular Devices, San Jose, CA, USA). The wavelengths of fluorescence excitation and emission were 486 and 525 nm, respectively. 26-bp dsDNA from the −10 and −35 regions of the tipA, mta, and skgA promoters with the sequences […], […], and […] were synthesized with a 5′-carboxyfluorescein label for the respective assays with TipAL, Mta, and SkgA proteins. For assays with thiostrepton supplementation, proteins were incubated with thiostrepton (Sigma) at a 1:1 ratio for 15 min prior to mixing with DNA in wells. Each well of a 384-well plate contained 10 nM of a fluorescently labeled DNA probe and different amounts of proteins with a final volume of 80 μl. DNA-free controls were included, and three replicates were performed for each reaction for each assay. The fluorescence polarization ΔP (in mP units) was calculated and fitted according to a one-site specific binding model using GraphPad Prism7 (GraphPad Software) with the function ΔP = ΔPmax[protein]/(Kd + [protein]).

mta promoter DNA = test: Fluorescence polarization assay, mta promoter DNA binding; set-up: species or system Bacillus subtilis; settings: apo, FPA; for Kd: read-out: Kd, affinity with mta promoter DNA
Protocol: as §1, §2

[6] = no antibiotic, 10 nM 5'-carboxyfluorescein-labeled 26-bp dsDNA, 20 mM Tris-HCl pH 7.5, 200 mM NaCl, 5% glycerol, 298 K, ex 486/em 525 nm, one-site binding fit, three replicates, n.b. = printed in picture, not defined
[7] = 10 nM 5'-carboxyfluorescein-labeled 26-bp dsDNA, 20 mM Tris-HCl pH 7.5, 200 mM NaCl, 5% glycerol, 298 K, ex 486/em 525 nm, one-site binding fit, three replicates, n.b. = printed in picture, not defined

## SkgA (stationary-phase regulation of KatG protein), Caulobacter crescentus TipA-class transcriptional regulator, full length (natural protein)
[1]
  stoichiometry N: 2

## SkgACC (S16C/E133C), double-cysteine mutant of SkgA (natural protein)
[2]
  stoichiometry N: 2

B1: TipAL, full-length thiostrepton-induced protein A of Streptomyces lividans (natural protein, UniProt P0A4T9-1 1-253, looked up)
chain: MSYSVGQVAGFAGVTVRTLHHYDDIGLLVPSERSHAGHRRYSDADLDRLQQILFYRELGFPLDEVAALLDDPAADPRAHLRRQHELLSARIGKLQKMAAAVEQAMEARSMGINLTPEEKFEVFGDFDPDQYEEEVRERWGNTDAYRQSKEKTASYTKEDWQRIQDEADELTRRFVALMDAGEPADSEGAMDAAEDHRQGIARNHYDCGYEMHTCLGEMYVSDERFTRNIDAAKPGLAAYMRDAILANAVRHTP
notes: also called WT TipAL; full-length TipAL; source: E. coli BL21 (DE3), purified (nickel-nitrilotriacetic acid, Superdex 200 SEC)
[3]
  stoichiometry N: 2

B2: TipALCC (T15C/E134C), double-cysteine mutant of TipAL (natural protein, Streptomyces lividans, UniProt P0A4T9-1 1-253, looked up)
chain: B1 chain with T15C, E134C
modifications: disulfide bonds between the introduced cysteines of two protomers (nonreduced sample)
notes: source: E. coli BL21 (DE3), purified (nickel-nitrilotriacetic acid, Superdex 200 SEC)
[4]
  stoichiometry N: 2

B3: TipAL: full-length S. lividans TipA transcriptional regulatory protein (protein)
chain: B1 chain
modifications: left off: His6, end not stated, state not stated
notes: full-length S. lividans TipA transcriptional regulatory protein
[5]; [6]
  Kd: 380 ± 56 nM

B4: TipALCC (protein)
chain: B1 chain with T15C, E134C
modifications: disulfide bonds between the introduced cysteines of two protomers (nonreduced sample); left off: His6, end not stated, state not stated
[5]; double-cysteine mutant
  ptipA DNA-binding ability: complete loss of DNA-binding ability
[5]; [6]
  Kd, affinity with the tipA promoter DNA (ptipA): n.b.

B5: TipAH7 (TipAL residues 1-140), TipAN plus the α6-α7 region (domain or fragment, Streptomyces lividans, UniProt P0A4T9-1 1-140, looked up)
chain: MSYSVGQVAGFAGVTVRTLHHYDDIGLLVPSERSHAGHRRYSDADLDRLQQILFYRELGFPLDEVAALLDDPAADPRAHLRRQHELLSARIGKLQKMAAAVEQAMEARSMGINLTPEEKFEVFGDFDPDQYEEEVRERWG
notes: as for B2
[3]
  stoichiometry N: 2

B6: TipAH7: truncated protein consisting of TipAN and the α6–α7 region, TipAL residues 1–140 (protein)
chain: B5 chain
modifications: left off: His6, end not stated, state not stated
[5]; TipAH7 vs TipAN, range printed jointly for the three H7 truncations
  lower DNA-binding affinity than N-terminal truncation: 4–7 fold
[5]; [6]
  Kd: 318 ± 58.5 nM

B7: MtaH7: truncated protein containing the α6–α7 region, Mta residues 1–144 (protein, UniProt P71039 1-144, looked up, fragment)
chain: MKYQVKQVAEISGVSIRTLHHYDNIELLNPSALTDAGYRLYSDADLERLQQILFFKEIGFRLDEIKEMLDHPNFDRKAALQSQKEILMKKKQRMDEMIQTIDRTLLSVDGGETMNKRDLFAGLSMKDIEEHQQTYADEVRKLYG
Mta promoter DNA; MtaH7 vs MtaN, range printed jointly for the three H7 truncations
  lower DNA-binding affinity than N-terminal truncation: 4–7 fold
Mta promoter DNA; [7]
  Kd: 467 ± 67.4 nM

B8: MtaCC (S15C/E138C), double-cysteine mutant of Mta (natural protein, Bacillus subtilis, UniProt P71039 1-257, looked up)
chain: MKYQVKQVAEISGVCIRTLHHYDNIELLNPSALTDAGYRLYSDADLERLQQILFFKEIGFRLDEIKEMLDHPNFDRKAALQSQKEILMKKKQRMDEMIQTIDRTLLSVDGGETMNKRDLFAGLSMKDIEEHQQTYADCVRKLYGKEIAEETEKRTSAYSADDWRTIMAEFDSIYRRIAARMKHGPDDAEIQAAVGAFRDHICQYHYDCTLDIFRGLGEVYITDERFTDSINQYGEGLAAFLREAIIIYCDHQENPRP
modifications: disulfide bonds between the introduced cysteines of two protomers (nonreduced sample)
notes: as for B2
[4]
  stoichiometry N: 2

B9: MtaCC (protein)
chain: B8 chain
modifications: disulfide bonds between the introduced cysteines of two protomers (nonreduced sample); left off: His6, end not stated, state not stated
Mta promoter DNA; double-cysteine mutant
  specific binding with mta promoter DNA: did not show any specific binding
Mta promoter DNA; [7]
  Kd, affinity with mta promoter DNA: n.b.

B10: Mta: B. subtilis multidrug transporter activation protein, TipA-class (protein)
chain: B8 chain with C15S, C138E
modifications: left off: His6, end not stated, state not stated
Mta promoter DNA; [7]
  Kd: 496 ± 70.3 nM

B11: TipAN (TipAL residues 1-109), N terminus of TipAL (domain or fragment, Streptomyces lividans, UniProt P0A4T9-1 1-109, looked up)
chain: MSYSVGQVAGFAGVTVRTLHHYDDIGLLVPSERSHAGHRRYSDADLDRLQQILFYRELGFPLDEVAALLDDPAADPRAHLRRQHELLSARIGKLQKMAAAVEQAMEARS
notes: its limits may differ from this construct; source: E. coli BL21 (DE3), purified (nickel-nitrilotriacetic acid, Superdex 200 SEC)
[3]
  stoichiometry N: 2
